T1: Alpha-2-Macroglobulin
T1 chain: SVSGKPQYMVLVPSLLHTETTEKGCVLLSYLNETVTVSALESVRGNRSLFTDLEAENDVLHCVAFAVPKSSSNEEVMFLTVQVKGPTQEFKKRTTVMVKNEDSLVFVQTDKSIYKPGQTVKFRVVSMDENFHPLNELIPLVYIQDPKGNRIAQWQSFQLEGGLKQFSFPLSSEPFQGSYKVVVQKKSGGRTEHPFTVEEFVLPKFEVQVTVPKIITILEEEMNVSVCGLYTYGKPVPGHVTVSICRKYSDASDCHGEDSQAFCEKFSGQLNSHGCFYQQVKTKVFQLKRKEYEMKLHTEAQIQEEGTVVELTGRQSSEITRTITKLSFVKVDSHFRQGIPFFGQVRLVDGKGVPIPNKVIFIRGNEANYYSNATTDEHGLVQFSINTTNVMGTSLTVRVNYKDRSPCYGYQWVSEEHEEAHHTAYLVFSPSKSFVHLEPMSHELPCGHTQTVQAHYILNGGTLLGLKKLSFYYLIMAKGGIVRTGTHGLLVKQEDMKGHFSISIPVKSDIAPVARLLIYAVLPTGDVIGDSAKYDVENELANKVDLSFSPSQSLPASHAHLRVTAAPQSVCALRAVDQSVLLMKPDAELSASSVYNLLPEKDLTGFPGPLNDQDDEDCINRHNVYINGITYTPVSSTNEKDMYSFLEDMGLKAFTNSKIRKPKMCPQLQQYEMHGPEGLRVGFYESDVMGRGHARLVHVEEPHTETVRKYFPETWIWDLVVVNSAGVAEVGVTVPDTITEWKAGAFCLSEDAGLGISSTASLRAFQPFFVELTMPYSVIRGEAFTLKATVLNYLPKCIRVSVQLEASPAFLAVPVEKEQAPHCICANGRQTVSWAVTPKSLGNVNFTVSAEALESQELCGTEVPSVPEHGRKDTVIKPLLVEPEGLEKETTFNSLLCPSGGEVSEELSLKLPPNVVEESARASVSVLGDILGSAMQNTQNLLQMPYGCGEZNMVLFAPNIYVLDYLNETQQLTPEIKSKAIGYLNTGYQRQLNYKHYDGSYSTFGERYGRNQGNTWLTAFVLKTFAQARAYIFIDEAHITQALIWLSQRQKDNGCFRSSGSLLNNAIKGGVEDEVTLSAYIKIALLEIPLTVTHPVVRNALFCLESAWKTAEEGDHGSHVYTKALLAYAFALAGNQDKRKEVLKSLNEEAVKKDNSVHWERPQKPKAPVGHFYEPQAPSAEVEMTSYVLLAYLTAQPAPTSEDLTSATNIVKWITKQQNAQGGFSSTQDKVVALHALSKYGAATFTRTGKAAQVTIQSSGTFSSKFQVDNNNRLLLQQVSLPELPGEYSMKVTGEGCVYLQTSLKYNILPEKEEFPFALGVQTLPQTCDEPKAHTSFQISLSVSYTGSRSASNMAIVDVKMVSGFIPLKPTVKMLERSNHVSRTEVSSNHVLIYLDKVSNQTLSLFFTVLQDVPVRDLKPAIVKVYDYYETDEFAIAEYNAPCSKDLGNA


Molecular target: T1, Alpha-2-Macroglobulin

Row | Protein | generation of α2M neoepitopes on digestion (50 ng α2M, 100 ng enzyme, 37° C., 1-30 min)
1 | ADAMTS-4 (protein) FASLSRFVETLVVADDKMAAFHGAGLKRYLLTVMAAAAKAFKHPSIRNPVSLVVTRLVILGSGEEGPQVGPSAAQTLRSFCAWQRGLNTPEDSDPDHFDTAILFTRQDLCGVSTCDTLGMADVGTVCDPARSCAIVEDDGLQSAFTAAHELGHVFNMLHDNSKPCISLNGPLSTSRHVMAPVMAHVDPEEPWSPCSARFITDFLDNGYGHCLLDKPEAPLHLPVTFPGKDYDADRQCQLTFGPDSRHCPQLPPPCAALWCSGHLNGHAMCQTKHSPWADGTPCGPAQACMGGRCLHMDQLQDFNIPQAGGWGPWGPWGDCSRTCGGGVQFSSRDCTRPVPRNGGKYCEGRRTRFRSCNTEDCPTGSALTFREEQCAAYNHRTDLFKSFPGPMDWVPRYTGVAPQDQCKLTCQAQALGYYYVLEPRVVDGTPCSPDSSSVCVQGRCIHAGCDRIIGSKKKFDKCMVCGGDGSGCSKQSGSFRKFRYGYNNVVTIPAGATHILVRQQGNPGHRSIYLALKLPDGSYALNGEYTLMPSPTDVVLPGAVSLRYSGATAASETLSGHGPLAQPLTLQVLVAGNPQDTRLRYSFFVPRPTPSTPRPTPQDWLHRRAQILEILRRRPWAGRK | Both neoepitopes were generated as early as after 2 minutes of incubation, and increased over time, up to after 30 minutes of incubation
2 | ADAMTS-5 (protein) SISRARQVELLLVADASMARLYGRGLQHYLLTLASIANRLYSHASIENHIRLAVVKVVVLGDKDKSLEVSKNAATTLKNFCKWQHQHNQLGDDHEEHYDAAILFTREDLCGHHSCDTLGMADVGTICSPERSCAVIEDDGLHAAFTVAHEIGHLLGLSHDDSKFCEETFGSTEDKRLMSSILTSIDASKPWSKCTSATITEFLDDGHGNCLLDLPRKQILGPEELPGQTYDATQQCNLTFGPEYSVCPGMDVCARLWCAVVRQGQMVCLTKKLPAVEGTPCGKGRICLQGKCVDKTKKKYYSTSSHGNWGSWGSWGQCSRSCGGGVQFAYRHCNNPAPRNNGRYCTGKRAIYRSCSLMPCPPNGKSFRHEQCEAKNGYQSDAKGVKTFVEWVPKYAGVLPADVCKLTCRAKGTGYYVVFSPKVTDGTECRLYSNSVCVRGKCVRTGCDGIIGSKLQYDKCGVCGGDNSSCTKIVGTFNKKSKGYTDVVRIPEGATHIKVRQFKAKDQTRFTAYLALKKKNGEYLINGKYMISTSETIIDINGTVMNYSGWSHRDDFLHGMGYSATKEILIVQILATDPTKPLDVRYSFFVPKKSTPKVNSVTSHGSNKVGSHTSQPQWVTGPWLACSRTCDTGWHTRTVQCQDGNRKLAKGCPLSQRPSAFKQCLLKKC | Both neoepitopes were generated as early as after 2 minutes of incubation, and increased over time, up to after 30 minutes of incubation

From patent US20050037432
